The source of these data is patent US20060269543A1 (Amgen, published 2006).

This test deals with T1, IFN-γ (human, UniProt P01579 24-166, limits assumed).
T1 sequence (looked up): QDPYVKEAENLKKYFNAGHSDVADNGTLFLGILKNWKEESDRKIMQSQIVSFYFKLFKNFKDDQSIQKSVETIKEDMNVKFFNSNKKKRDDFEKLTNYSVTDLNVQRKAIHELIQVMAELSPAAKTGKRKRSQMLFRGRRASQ
Put plainly: cell-based or functional assay.

B1: full length human IgG1 antibody against human IFN-γ, filtered purified bulk (FPB) (antibody, V domains shown)
VH: EVQLVQSGAEVKKPGESLKISCKGSGYNFTSYWIGWVRQMPGKGLELMGIIYPGDSDTRYSPSFQGQVTISADKSISTAYLQWSSLKASDTAMYYCGSGSYFYFDLWGRGTLVTVSS
VL: EIVLTQSPGTLSLSPGERATLSCRASQSVSSSYLAWYQQKPGQAPRLLIYGASSRATGIPDRFSGSGSGTDFTLTISRLEPEDFAVYYCQRSGGSSFTFGPGTKVDIKR
modifications: N-glycan sites at amino acids 28 and 297 of SEQ ID NO:17 (VH and CH2); heterogeneously sialylated
B1: the “IC50, A549 cell proliferation assay (ALAMARBLUE); sample stored 3 months at pH 5, 4° C.” value (shortened to “IC50, A549 cell proliferation assay … 4° C.”) is 0.0023 µg/mL and the “IC50, A549 cell proliferation assay (ALAMARBLUE); sample stored 3 months at pH 5, 37° C.” value (from here on “IC50, A549 cell proliferation assay … 37° C.”) was determined as 0.0027 µg/mL.

B2: full length human IgG1 antibody against human IFN-γ, purified isoform Peak 0 (antibody, V domains shown)
VH: EVQLVQSGAEVKKPGESLKISCKGSGYNFTSYWIGWVRQMPGKGLELMGIIYPGDSDTRYSPSFQGQVTISADKSISTAYLQWSSLKASDTAMYYCGSGSYFYFDLWGRGTLVTVSS
VL: EIVLTQSPGTLSLSPGERATLSCRASQSVSSSYLAWYQQKPGQAPRLLIYGASSRATGIPDRFSGSGSGTDFTLTISRLEPEDFAVYYCQRSGGSSFTFGPGTKVDIKR
modifications: N-glycan sites at amino acids 28 and 297 of SEQ ID NO:17 (VH and CH2); sialylation isoform Peak 0
In the case of B2, the “IC50, A549 cell proliferation assay … 4° C.” value was determined as 0.0024 µg/mL and the “IC50, A549 cell proliferation assay … 37° C.” value is 0.0033 µg/mL.

B3: full length human IgG1 antibody against human IFN-γ, purified isoform Peak +2 (antibody, V domains shown)
VH: EVQLVQSGAEVKKPGESLKISCKGSGYNFTSYWIGWVRQMPGKGLELMGIIYPGDSDTRYSPSFQGQVTISADKSISTAYLQWSSLKASDTAMYYCGSGSYFYFDLWGRGTLVTVSS
VL: EIVLTQSPGTLSLSPGERATLSCRASQSVSSSYLAWYQQKPGQAPRLLIYGASSRATGIPDRFSGSGSGTDFTLTISRLEPEDFAVYYCQRSGGSSFTFGPGTKVDIKR
modifications: N-glycan sites at amino acids 28 and 297 of SEQ ID NO:17 (VH and CH2); sialylation isoform Peak +2
For the molecule B3, the “IC50, A549 cell proliferation assay … 4° C.” value turned out to be 0.002 µg/mL and the “IC50, A549 cell proliferation assay … 37° C.” value stood at 0.0032 µg/mL.

B4: full length human IgG1 antibody against human IFN-γ, purified isoform Peak -2 (antibody, V domains shown)
VH: EVQLVQSGAEVKKPGESLKISCKGSGYNFTSYWIGWVRQMPGKGLELMGIIYPGDSDTRYSPSFQGQVTISADKSISTAYLQWSSLKASDTAMYYCGSGSYFYFDLWGRGTLVTVSS
VL: EIVLTQSPGTLSLSPGERATLSCRASQSVSSSYLAWYQQKPGQAPRLLIYGASSRATGIPDRFSGSGSGTDFTLTISRLEPEDFAVYYCQRSGGSSFTFGPGTKVDIKR
modifications: N-glycan sites at amino acids 28 and 297 of SEQ ID NO:17 (VH and CH2); sialylation isoform Peak -2
Consider B4, for which the “IC50, A549 cell proliferation assay … 4° C.” value was found to be 0.0037 µg/mL and the “IC50, A549 cell proliferation assay … 37° C.” value was 0.0038 µg/mL.

B5: full length human IgG1 antibody against human IFN-γ, purified isoform Peak +1 (antibody, V domains shown)
VH: EVQLVQSGAEVKKPGESLKISCKGSGYNFTSYWIGWVRQMPGKGLELMGIIYPGDSDTRYSPSFQGQVTISADKSISTAYLQWSSLKASDTAMYYCGSGSYFYFDLWGRGTLVTVSS
VL: EIVLTQSPGTLSLSPGERATLSCRASQSVSSSYLAWYQQKPGQAPRLLIYGASSRATGIPDRFSGSGSGTDFTLTISRLEPEDFAVYYCQRSGGSSFTFGPGTKVDIKR
modifications: N-glycan sites at amino acids 28 and 297 of SEQ ID NO:17 (VH and CH2); sialylation isoform Peak +1
On to B5, for which the “IC50, A549 cell proliferation assay … 4° C.” value worked out at 0.0018 µg/mL and the “IC50, A549 cell proliferation assay … 37° C.” value amounted to 0.0028 µg/mL.

B6: full length human IgG1 antibody against human IFN-γ, purified isoform Peak -1 (antibody, V domains shown)
VH: EVQLVQSGAEVKKPGESLKISCKGSGYNFTSYWIGWVRQMPGKGLELMGIIYPGDSDTRYSPSFQGQVTISADKSISTAYLQWSSLKASDTAMYYCGSGSYFYFDLWGRGTLVTVSS
VL: EIVLTQSPGTLSLSPGERATLSCRASQSVSSSYLAWYQQKPGQAPRLLIYGASSRATGIPDRFSGSGSGTDFTLTISRLEPEDFAVYYCQRSGGSSFTFGPGTKVDIKR
modifications: N-glycan sites at amino acids 28 and 297 of SEQ ID NO:17 (VH and CH2); sialylation isoform Peak -1
Consider B6, for which the “IC50, A549 cell proliferation assay … 4° C.” value worked out at 0.003 µg/mL and the “IC50, A549 cell proliferation assay … 37° C.” value was found to be 0.0033 µg/mL.
